Data on 12 molecules can be found in US20190330354A1 (MITSUBISHI TANABE PHARMA, published 2019).

In general, Kd refers to a measure of binding affinity in units of concentration. Read a high Kd as weaker binding.

Test [1] deals with T1, Canine (limits assumed).
T1 construct: also called canine cMet; dog cMET
T1 receptor: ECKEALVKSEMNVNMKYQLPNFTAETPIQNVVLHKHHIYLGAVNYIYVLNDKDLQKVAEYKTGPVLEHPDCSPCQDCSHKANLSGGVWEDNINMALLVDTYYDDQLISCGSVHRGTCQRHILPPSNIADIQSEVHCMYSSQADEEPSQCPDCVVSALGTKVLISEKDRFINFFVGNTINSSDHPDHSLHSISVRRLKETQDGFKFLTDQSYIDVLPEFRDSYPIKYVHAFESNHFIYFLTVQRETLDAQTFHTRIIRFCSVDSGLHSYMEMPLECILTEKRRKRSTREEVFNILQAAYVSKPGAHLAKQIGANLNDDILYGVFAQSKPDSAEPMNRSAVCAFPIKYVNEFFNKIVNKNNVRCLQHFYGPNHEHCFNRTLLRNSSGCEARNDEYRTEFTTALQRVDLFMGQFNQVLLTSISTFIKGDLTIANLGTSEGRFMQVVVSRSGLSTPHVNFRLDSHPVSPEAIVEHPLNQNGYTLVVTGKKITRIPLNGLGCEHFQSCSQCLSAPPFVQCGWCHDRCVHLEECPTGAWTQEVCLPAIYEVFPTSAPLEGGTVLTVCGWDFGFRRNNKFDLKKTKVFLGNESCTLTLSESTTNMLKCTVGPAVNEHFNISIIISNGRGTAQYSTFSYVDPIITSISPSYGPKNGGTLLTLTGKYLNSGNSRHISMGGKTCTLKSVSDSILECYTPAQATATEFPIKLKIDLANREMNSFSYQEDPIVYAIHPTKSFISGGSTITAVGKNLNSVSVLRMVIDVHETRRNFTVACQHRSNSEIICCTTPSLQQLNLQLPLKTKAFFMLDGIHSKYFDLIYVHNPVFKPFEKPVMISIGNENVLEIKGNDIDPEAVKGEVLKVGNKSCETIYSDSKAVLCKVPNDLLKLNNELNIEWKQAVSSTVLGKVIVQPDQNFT
Nature of the test: ELISA, antibody titrated on cMet of the named species, OD 450 nm. (ELISA stands for enzyme-linked immunosorbent assay.)

Test [2] deals with T2, rat cMET (rat, UniProt P97523 25-935, limits assumed).
T2 construct: ELISA antigen; also called rMET
The test is described as above.

For test [3], the target named is T3, mouse cMET (mouse, UniProt P16056 25-931, limits assumed).
T3 construct: ELISA antigen
Described as above.

The target of test [4] is T1, Canine. The test is described as above.
Test [5] addresses T3, mouse cMET. Described as above. The source holds these as a separate data set.
For test [6], the target named is T1, Canine. The test is described as above.
Test [7] has as its target T3, mouse cMET. Described as above. The source holds these as a separate data set.
For test [8], the target named is T1, Canine. The test is described as above.
Test [9] has as its target T3, mouse cMET. The description is as above. The source holds these as a separate data set.
Test [10] concerns the target T2, rat cMET. Nature of the test: ELISA on rat cMET, ratio to parental P3D12.
Target sequence in this assay (P97523 25-935 limits assumed): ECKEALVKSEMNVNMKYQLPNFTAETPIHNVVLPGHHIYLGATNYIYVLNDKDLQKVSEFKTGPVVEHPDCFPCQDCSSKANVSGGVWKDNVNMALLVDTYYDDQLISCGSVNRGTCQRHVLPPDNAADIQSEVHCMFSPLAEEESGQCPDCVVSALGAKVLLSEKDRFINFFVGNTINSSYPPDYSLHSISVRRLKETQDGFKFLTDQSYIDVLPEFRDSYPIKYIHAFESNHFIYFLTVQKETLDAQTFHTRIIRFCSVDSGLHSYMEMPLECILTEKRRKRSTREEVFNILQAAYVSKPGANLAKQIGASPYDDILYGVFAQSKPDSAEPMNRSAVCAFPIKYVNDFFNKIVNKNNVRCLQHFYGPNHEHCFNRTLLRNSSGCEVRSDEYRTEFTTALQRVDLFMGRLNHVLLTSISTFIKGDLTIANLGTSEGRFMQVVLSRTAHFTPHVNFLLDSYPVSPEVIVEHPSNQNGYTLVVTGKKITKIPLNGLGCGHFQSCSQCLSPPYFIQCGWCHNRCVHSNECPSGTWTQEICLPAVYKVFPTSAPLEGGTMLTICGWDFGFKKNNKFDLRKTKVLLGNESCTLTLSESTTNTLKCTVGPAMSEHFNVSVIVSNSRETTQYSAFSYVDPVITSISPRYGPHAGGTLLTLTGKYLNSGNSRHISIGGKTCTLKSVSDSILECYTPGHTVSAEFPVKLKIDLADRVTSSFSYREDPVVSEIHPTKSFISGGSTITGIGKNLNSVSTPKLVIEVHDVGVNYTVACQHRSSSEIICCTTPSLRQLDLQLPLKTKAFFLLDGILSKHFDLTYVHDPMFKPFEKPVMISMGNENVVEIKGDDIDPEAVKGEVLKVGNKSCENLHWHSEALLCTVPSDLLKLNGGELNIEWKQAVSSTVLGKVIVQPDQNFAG
The next test deals with T4, human cMET (human, UniProt P08581 25-932, limits assumed).
T4 construct: also called hMET
The test is described as follows: ELISA on human cMET, ratio to parental P3D12.

Test [11] has as its target human cMET-Fc fusion protein (human) [IgG part: P01857]. The test is described as follows: SPR with hMet-Fc.
In test [12] the target is T1, Canine. The test is described as follows: ELISA, antibody titrated on cMet of the named species, OD 450 nm.
Test [13] concerns the target T2, rat cMET. The test is described as above. The source holds these as a separate data set.
The target in test [14] is T3, mouse cMET. Described as above. The source holds these as a separate data set.

Changes are numbered by the printed parent chain. Like-named read-outs stand apart in the source and are kept apart here.

T4 sequence (P08581 25-932 limits assumed): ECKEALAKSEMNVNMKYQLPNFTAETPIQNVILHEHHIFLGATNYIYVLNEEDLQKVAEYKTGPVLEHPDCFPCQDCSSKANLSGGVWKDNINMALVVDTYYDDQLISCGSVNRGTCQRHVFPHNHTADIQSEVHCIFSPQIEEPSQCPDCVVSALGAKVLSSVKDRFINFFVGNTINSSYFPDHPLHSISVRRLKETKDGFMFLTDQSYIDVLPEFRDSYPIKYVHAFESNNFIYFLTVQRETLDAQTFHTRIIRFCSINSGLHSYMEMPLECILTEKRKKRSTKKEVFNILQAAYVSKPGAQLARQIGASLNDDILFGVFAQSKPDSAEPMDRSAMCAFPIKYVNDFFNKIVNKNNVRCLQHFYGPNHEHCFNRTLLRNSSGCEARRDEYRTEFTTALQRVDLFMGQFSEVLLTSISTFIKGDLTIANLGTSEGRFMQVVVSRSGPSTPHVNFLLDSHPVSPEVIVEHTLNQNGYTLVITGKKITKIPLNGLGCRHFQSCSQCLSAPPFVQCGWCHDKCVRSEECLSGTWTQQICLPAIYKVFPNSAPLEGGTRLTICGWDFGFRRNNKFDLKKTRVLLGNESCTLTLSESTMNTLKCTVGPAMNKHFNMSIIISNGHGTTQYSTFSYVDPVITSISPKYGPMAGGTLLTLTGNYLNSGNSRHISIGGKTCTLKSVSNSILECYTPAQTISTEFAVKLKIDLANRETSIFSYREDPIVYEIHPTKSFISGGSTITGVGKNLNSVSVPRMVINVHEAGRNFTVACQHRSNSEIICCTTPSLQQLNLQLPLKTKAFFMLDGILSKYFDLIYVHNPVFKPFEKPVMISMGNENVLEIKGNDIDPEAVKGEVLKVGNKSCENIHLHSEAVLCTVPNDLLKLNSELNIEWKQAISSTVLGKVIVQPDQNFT

B1: F6AP8E2 (antibody, V domains shown)
VH: EVQLQQSGAELVRPGALVKLSCKASGFNINDYFMHWVKQRPEQGLEWIGWIDPENGNTIYDPKFQGKASITADTSSNTAYLQLSSLTSEDTAVYYCARGGNYLRESYYYAMDYWGQGTSVTVSS
VL: DIVMTQSPKSMSMSVGERVTLSCKASENVGTYVSWYQQKPDQSPKLLIYGASNRYTGVPDRFTGSGSATDFTLTISSVQAEDLADYHCGQSYSYPLTFGAGTKLELKR
notes: Mouse monoclonal antibody
Take B1: the binding result in the test with Canine [1] was “no binding (tested: 10 ug/mL (axis value 1, log10))”; in the test with rat cMET [2], “no binding (tested: 10 ug/mL (axis value 1, log10))”; in the test with mouse cMET [3] it was “no binding (tested: 10 ug/mL (axis value 1, log10))”.

B2: F6B1P3D12 (antibody, V domains shown)
VH: QVQLQQSGAELAKPGASVKMSCRASGYTFTSYWMHWVKQRPGQGLDWIGYIKPSTDNTEYNQKFKDKATLTADKSSSTAYMQLSSLTSEDSAVYYCARSYGNYPLMDYWGQGTSVTVSS
VL: QIVLTQSPAIMSASPGEKVTLTCSASSSVTSNYLYWYQQKPGSSPKLWIYSTSNLASGVPARFSGSGSGTSYSLTISSMEAEDAASYFCHQWSSYPPTFGSGTKLEIKR
notes: Mouse monoclonal antibody from a hybridoma; also called Mouse P3D12; P3D12(mouse)
Take B2: the binding result with Canine [4] was “no binding (tested: 10 ug/mL (axis value 1, log10))”; in the test with mouse cMET [5], “no binding (tested: 10 ug/mL (axis value 1, log10))”.

B3: F6BP2D4 (antibody, V domains shown)
VH: B2 VH with R23K, D46E, K52N, N57Y, T58I, D73G, Y103F
VL: B2 VL with T30S, A61V
notes: Mouse monoclonal antibody
B3: the binding result with Canine [6] was “no binding (tested: 10 ug/mL (axis value 1, log10))”; with mouse cMET [7], “no binding (tested: 10 ug/mL (axis value 1, log10))”.

B4: F6B1P1E2 (antibody, V domains shown)
VH: B2 VH with R23K, D46E, K52N, N57Y, S77T, A97V
VL: B2 VL with T30S, Q38H, A61V
notes: Mouse monoclonal antibody
For the molecule B4, the binding result in the test with Canine [8] is on record as “no binding (tested: 10 ug/mL (axis value 1, log10))”; with mouse cMET [9], “no binding (tested: 10 ug/mL (axis value 1, log10))”.

B5: G2akv (antibody, V domains shown)
VH: QVQLVQSGAEVKKPGASVKVSCKASGYTFTSYWMHWVKQAPGQGLDWMGYIKPSTDNTEYAQKFQGRVTLTADKSTSTAYMELSSLRSEDTAVYYCARSYGNYPLMDYWGQGTTVTVSS
VL: B2 VL with I10T, K18R, T22S, K46R, S73T, S78R, A81P
notes: As G2aka; reported insoluble in PBS; also called humanized P3D12, HC VH-abb/sdr, LC ven
In the case of B5, the “ELISA rMET vs parental” value in the test with rat cMET [10] is 1.3. In addition, the “ELISA hMET vs parental” value in the test with human cMET stood at 1.8.

B6: G2vkv (antibody, V domains shown)
VH: B2 VH with Q5V, L11V, R23K, R40A, S76T, T87R, S91T, S114T
VL: B2 VL with I10T, K18R, T22S, K46R, S73T, S78R, A81P
notes: As G2aka; reported insoluble in PBS; also called humanized P3D12, HC VH-ven, LC ven
In the case of B6, the “ELISA rMET vs parental” value in the test with rat cMET [10] came to 1.6. In addition, in the test with human cMET, the “ELISA hMET vs parental” value came out at 1.8.

B7: G2vka (antibody, V domains shown)
VH: B2 VH with Q5V, L11V, R23K, R40A, S76T, T87R, S91T, S114T
VL: QIVLTQSPATLSLSPGERATLSCRASQSVTSNYLYWYQQKPGSSPRLLIYSTSNLASGVPARFSGSGSGTDYTLTISRLEPEDFASYFCHQWSSYPPTFGSGTKLEIKR
notes: As G2aka; also called humanized P3D12, HC VH-ven, LC abb/sdr
Regarding B7, the “ELISA rMET vs parental” value in the test with rat cMET [10] came out at 2.7. Moreover, the “ELISA hMET vs parental” value with human cMET amounted to 0.9.

B8: G2vkc (antibody, V domains shown)
VH: B2 VH with Q5V, L11V, R23K, R40A, S76T, T87R, S91T, S114T
VL: B7 VL with R24S, Q27S, D71S
notes: As G2aka; also called humanized P3D12, HC VH-ven, LC cdr
B8: the “ELISA rMET vs parental” value with rat cMET [10] is 1.9. The “ELISA hMET vs parental” value with human cMET is 1.1.

B9: ABF46 (antibody, from another filing, V domains shown)
VH: EVKLVESGGGLVQPGGSLRLSCATSGFTFTDYYMSWVRQPPGKALEWLGFIRNKANGYTTEYSASVKGRFTISRDNSQSILYLQMDTLRAEDSATYYCARDNWFAYWGQGTLVTVSA
VL: DILMTQSPSSLTVSAGEKVTMSCKSSQSLLASGNQNNYLAWHQQKPGRSPKMLIIWASTRVSGVPDRFIGSGSGTDFTLTINSVQAEDLAVYYCQQSYSAPLTFGAGTKLELKR
In turn, B9 had a dissociation constant (Kd) in test [11] of 0.7 nM.

B10: G2akc (antibody, V domains shown)
VH: B5 VH
VL: B7 VL with R24S, Q27S, D71S
notes: As G2aka; also called humanized P3D12, HC VH-abb/sdr, LC cdr
As to B10, the “ELISA rMET vs parental” value with rat cMET [10] turned out to be 0.7. In the test with human cMET, the “ELISA hMET vs parental” value came out at 1.3.

B11: G2vkf (antibody, V domains shown)
VH: B2 VH with Q5V, L11V, R23K, R40A, S76T, T87R, S91T, S114T
VL: B2 VL with M11L, A13L, K18R, V19A, T22S, W48L, S73T, M79L
notes: As G2aka; also called humanized P3D12, HC VH-ven, LC fra
As to B11, the “ELISA rMET vs parental” value in the test with rat cMET [10] turned out to be 1. Further, in the test with human cMET, the “ELISA hMET vs parental” value is 1.1.

B12: F5P5B9 (antibody, V domains shown)
VH: QVQLKESGPGLVAPSQSLSITCTVSGFSLTNYGVNWVRQPPGKGLEWLGLIWGGGDTDYNSALKSRLSISKDNSKSQVFLKMETNSLQTDDTARYYCARDYYGFDYWGQGTTLTVSS
VL: DVLMTQTPLSLPVSLGDQASISCRSSQTIVHGTGNTYLEWYLQKPGQSPKLLIYKVSNRFSGVPDRFSGSGSGTDFTLKISRVEAEDLGVYYCFQGSHVPYTFGGGTKLEIKR
notes: Mouse monoclonal antibody
Take B12: the binding result in the test with Canine [12], in the test with rat cMET [13] and in the test with mouse cMET [14] was “no binding (tested: 10 ug/mL)” in each case.
